The target in assay [1] is ITK SH2 domain (human) (UniProt Q08881). Put plainly: peptide or protein array; SH2/PTB proteins spotted on aldehyde slides, rhodamine peptide titrated in buffer B (20 mM HEPES, 100 mM KCl, 0.1% Tween-20, 5 mM DTT, pH 7.8), 1 h at room temperature; replicate assays.
The target of assay [2] is GRB10 SH2 domain (human) (UniProt Q13322). Described as above.
Assay [3] has as its target YES1 SH2 domain (human) (UniProt P07947). The assay is described as above.
In assay [4] the target is PTPN11 tandem SH2 domains (human). The description is as above.
Assay [5] deals with BCAR3 SH2 domain (human) (UniProt O75815). Described as above.
BCAR3 SH2 domain (human), sequence (O75815 154-253): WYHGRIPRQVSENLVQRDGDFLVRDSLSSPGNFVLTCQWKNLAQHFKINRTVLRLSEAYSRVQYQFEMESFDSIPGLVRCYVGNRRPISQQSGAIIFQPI
The target in assay [6] is NCK1 SH2 domain (human) (UniProt P16333). The description is as above.
Assay [7] deals with RASA1 N-terminal SH2 domain (human) (UniProt P20936). Described as above.
RASA1 N-terminal SH2 domain (human), sequence (P20936 whole entry, the tested form may be a part): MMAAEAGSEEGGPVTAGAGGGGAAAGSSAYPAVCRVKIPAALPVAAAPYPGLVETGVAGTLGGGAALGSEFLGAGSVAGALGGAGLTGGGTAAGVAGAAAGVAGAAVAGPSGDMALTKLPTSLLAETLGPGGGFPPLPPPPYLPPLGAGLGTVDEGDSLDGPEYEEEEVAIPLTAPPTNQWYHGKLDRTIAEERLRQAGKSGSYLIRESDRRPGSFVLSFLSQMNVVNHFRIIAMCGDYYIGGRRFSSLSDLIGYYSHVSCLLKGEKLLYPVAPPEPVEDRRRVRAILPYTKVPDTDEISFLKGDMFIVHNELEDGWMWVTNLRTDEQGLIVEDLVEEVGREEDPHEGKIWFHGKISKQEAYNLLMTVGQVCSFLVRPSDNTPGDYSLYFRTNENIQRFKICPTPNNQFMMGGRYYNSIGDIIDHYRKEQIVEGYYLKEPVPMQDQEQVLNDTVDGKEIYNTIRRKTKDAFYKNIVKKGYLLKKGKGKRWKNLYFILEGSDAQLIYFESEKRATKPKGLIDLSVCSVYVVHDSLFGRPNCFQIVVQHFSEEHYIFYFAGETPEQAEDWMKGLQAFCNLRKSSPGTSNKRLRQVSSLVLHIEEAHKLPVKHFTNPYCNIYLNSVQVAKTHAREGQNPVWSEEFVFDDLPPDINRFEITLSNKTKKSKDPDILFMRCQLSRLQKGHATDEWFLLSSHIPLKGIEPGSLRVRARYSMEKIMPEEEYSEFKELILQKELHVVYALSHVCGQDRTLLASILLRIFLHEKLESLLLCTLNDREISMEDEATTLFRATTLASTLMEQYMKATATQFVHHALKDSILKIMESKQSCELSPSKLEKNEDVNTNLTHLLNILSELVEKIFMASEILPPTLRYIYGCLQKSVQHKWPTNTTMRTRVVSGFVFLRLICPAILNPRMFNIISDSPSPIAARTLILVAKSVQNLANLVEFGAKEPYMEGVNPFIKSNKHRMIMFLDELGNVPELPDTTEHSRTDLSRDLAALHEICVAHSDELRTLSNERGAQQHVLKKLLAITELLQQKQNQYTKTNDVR
Assay [8] concerns the target GRAP2 SH2 domain (human) (UniProt O75791). The assay is described as above.
For assay [9], the target named is SRC SH2 domain (human) (UniProt P12931). The description is as above.
The target in assay [10] is ZAP70 tandem SH2 domains (human). The description is as above.
Assay [11] addresses RASA1 tandem SH2 domains (human). The assay is described as above.
For assay [12], the target named is SH2D2A SH2 domain (human) (UniProt Q9NP31). The assay is described as above.
SH2D2A SH2 domain (human), sequence (Q9NP31 95-186): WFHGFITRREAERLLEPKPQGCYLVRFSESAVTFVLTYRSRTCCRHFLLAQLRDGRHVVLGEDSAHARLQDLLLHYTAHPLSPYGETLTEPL
Assay [13] has as its target SH2D3A SH2 domain (human) (UniProt Q9BRG2). Described as above.
The target in assay [14] is HCK SH2 domain (human) (UniProt P08631). Described as above.
HCK SH2 domain (human), sequence (P08631 144-241): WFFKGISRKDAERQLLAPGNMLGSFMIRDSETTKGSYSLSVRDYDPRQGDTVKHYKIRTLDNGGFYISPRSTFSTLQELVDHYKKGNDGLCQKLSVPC
Assay [15] has as its target SH2D1B SH2 domain (human) (UniProt O14796). The assay is described as above.
Assay [16] deals with SLA (Homo sapiens) (UniProt Q13239). The note with it: cited from earlier work.
SLA (Homo sapiens), sequence (Q13239 79-180): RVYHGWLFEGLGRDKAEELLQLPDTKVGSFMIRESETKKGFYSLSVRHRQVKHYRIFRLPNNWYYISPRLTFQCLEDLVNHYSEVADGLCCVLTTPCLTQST
The target in assay [17] is CRKL (Homo sapiens) (UniProt P46109). To be noted: cited from earlier work.
CRKL (Homo sapiens), sequence (P46109 9-107): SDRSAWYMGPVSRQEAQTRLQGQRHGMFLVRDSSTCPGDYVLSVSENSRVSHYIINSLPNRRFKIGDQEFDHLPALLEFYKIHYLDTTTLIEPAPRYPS
The target of assay [18] is PIK3R1-C (Homo sapiens) (UniProt P27986). To be noted: cited from earlier work.
PIK3R1-C (Homo sapiens), sequence (P27986 328-723): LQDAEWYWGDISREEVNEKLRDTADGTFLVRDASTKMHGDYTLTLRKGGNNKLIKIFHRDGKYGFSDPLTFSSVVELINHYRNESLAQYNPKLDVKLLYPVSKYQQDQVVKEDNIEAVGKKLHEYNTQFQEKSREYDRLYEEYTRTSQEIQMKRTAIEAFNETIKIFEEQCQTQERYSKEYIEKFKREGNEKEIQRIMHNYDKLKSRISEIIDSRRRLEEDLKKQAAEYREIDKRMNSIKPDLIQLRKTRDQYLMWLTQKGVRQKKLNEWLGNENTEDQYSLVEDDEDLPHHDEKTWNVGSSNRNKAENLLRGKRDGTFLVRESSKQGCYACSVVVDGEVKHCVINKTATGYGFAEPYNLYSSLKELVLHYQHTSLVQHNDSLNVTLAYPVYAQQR
Assay [19] concerns the target TNS4 (Homo sapiens) (UniProt Q8IZW8). To be noted: cited from earlier work.
Assay [20] concerns the target CRKL (Homo sapiens) (UniProt P46109). To be noted: cited from earlier work. The source holds these as a separate data set.
The target in assay [21] is SOCS1 (Homo sapiens) (UniProt O15524). To be noted: cited from earlier work.
SOCS1 (Homo sapiens), sequence (O15524 74-179): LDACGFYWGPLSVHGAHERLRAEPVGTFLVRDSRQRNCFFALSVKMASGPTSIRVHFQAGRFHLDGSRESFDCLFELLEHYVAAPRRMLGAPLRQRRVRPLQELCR
The target in assay [22] is PTPN11-N (Homo sapiens) (UniProt Q06124). To be noted: cited from earlier work.

The values below come from paper PMC3433420.

“And” between values parts separate entries of the source, which are not always exact repeats. Identical values can stand only once. Like-named read-outs stand apart in the source and are kept apart here.

SH2D3A SH2 domain (human), sequence (Q9BRG2 15-114): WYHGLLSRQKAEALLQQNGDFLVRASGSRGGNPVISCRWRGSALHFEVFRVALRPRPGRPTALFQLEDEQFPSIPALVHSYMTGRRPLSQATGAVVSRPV
YES1 SH2 domain (human), sequence (P07947 158-255): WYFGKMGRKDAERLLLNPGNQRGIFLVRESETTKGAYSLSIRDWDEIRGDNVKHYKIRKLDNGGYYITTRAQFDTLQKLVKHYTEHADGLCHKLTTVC
ITK SH2 domain (human), sequence (Q08881 239-338): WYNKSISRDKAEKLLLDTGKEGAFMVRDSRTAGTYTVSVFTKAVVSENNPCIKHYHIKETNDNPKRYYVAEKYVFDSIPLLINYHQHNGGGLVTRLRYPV
GRAP2 SH2 domain (human), sequence (O75791 58-149): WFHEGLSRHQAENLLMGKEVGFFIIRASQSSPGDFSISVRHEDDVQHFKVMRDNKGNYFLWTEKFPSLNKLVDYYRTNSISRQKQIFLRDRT
SH2D1B SH2 domain (human), sequence (O14796 5-101): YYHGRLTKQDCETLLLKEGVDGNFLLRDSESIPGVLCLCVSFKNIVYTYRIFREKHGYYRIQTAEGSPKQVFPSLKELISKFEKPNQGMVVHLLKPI
TNS4 (Homo sapiens), sequence (Q8IZW8 444-561): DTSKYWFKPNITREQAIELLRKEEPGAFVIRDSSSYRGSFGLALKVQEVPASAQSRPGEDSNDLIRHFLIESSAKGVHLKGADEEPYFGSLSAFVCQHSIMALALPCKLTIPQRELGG
GRB10 SH2 domain (human), sequence (Q13322 493-574): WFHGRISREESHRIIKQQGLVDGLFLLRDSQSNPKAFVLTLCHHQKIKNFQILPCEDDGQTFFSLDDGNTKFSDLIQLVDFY

Broadly, the Kd is the equilibrium constant for the complex coming apart. In the case of “ErbB4 pY1262 phosphopeptide, rhodamine-labelled, for protein microarrays”, the Kd in assay [1] was 401 nM and 802 nM; in assay [2], 1500 nM; in assay [3] it was 111 nM and 329 nM; in [4], 536 nM; in assay [5], 610 nM and 1170 nM; in assay [6] it was 574 nM and 643 nM. Further, the Kd in [7] is 299 nM and 596 nM; in assay [8], 808 nM and 1360 nM; in [9], 403 nM and 2100 nM; in assay [10] it was 2710 nM and 1630 nM; in [11] it was 318 nM; in assay [12], 1170 nM. Moreover, the Kd in assay [13] was 177 nM and 402 nM; in assay [14], 827 nM; in assay [15], 612 nM.

In the case of …pYEEMRAFQ, the values for the apparent Kd (screen) in assay [16], in [17] and in assay [18] were 2000 nM, 1250 nM and 64 nM, respectively.

For the substance …pYLIPQQGFd, the apparent Kd (screen) is 922 nM in assay [19] and 998 nM in assay [20].

Consider …pYLVPQQGF, for which the apparent Kd (screen) in assay [21] was 2000 nM.

In the case of …pYWDQDPPE, in [22], the apparent Kd (screen) was 2000 nM.
